Laboratory results: patent US20130171170A1

Molecular target: human CD22-beta-ECD-His tagged soluble antigen (human) (UniProt P20273)
Test: SPR (BIACORE 3000), antibody coupled to the chip, soluble CD22-beta-ECD-His injected, 25 C

human CD22-beta-ECD-His tagged soluble antigen (human), sequence (P20273 other isoform, or with tags, fused parts or gaps): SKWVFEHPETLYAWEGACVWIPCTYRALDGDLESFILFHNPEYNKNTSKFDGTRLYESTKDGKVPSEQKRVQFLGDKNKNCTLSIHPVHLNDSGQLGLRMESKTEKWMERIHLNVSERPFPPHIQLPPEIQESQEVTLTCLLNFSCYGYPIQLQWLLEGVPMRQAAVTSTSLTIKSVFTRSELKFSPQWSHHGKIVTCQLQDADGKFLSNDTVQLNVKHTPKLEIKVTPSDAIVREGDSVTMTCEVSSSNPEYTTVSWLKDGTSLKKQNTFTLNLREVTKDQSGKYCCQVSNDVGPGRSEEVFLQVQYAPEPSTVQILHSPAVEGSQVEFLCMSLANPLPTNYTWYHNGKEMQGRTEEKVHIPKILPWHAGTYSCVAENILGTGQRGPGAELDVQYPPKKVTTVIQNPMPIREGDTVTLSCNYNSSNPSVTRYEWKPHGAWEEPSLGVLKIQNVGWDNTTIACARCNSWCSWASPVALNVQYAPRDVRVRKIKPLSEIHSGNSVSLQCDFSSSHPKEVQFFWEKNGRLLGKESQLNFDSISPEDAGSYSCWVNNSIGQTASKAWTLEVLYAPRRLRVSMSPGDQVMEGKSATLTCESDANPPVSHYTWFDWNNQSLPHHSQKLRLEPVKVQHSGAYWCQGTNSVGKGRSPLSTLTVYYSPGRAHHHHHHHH

- Kd: 4.2 nM
- koff: 0.00014 s⁻¹
- kon: 33000 M⁻¹ s⁻¹
B1: anti-CD22 antibody RFB4 (antibody, from another filing, V domains shown)
VH: EVQLVESGGGLVKPGGSLKLSCAASGFAFSIYDMSWVRQTPEKRLEWVAYISSGGGTTYYPDTVKGRFTISRDNAKNTLYLQMSSLKSEDTAMYYCARHSGYGSSYGVLFAYWGQGTLVTVSA
VL: DIQMTQTTSSLSASLGDRVTISCRASQDISNYLNWYQQKPDGTVKLLIYYTSILHSGVPSRFSGSGSGTDYSLTISNLEQEDFATYFCQQGNTLPWTFGGGTKLEIK
